Source: patent US20120270234A1, “DDR2 PROTEIN WITH ACTIVATED KINASE ACTIVITY AND PREPARATION METHOD THEREOF” (KOREA INSTITUTE OF SCIENCE AND TECHNOLOGY, priority 2003, published 2012)

T1: fusion protein of glutathione S transferase and human DDR2 cytosolic tyrosine kinase domain (GST-DDR2 CKD), expressed alone in sf9 cells
T1 sequence: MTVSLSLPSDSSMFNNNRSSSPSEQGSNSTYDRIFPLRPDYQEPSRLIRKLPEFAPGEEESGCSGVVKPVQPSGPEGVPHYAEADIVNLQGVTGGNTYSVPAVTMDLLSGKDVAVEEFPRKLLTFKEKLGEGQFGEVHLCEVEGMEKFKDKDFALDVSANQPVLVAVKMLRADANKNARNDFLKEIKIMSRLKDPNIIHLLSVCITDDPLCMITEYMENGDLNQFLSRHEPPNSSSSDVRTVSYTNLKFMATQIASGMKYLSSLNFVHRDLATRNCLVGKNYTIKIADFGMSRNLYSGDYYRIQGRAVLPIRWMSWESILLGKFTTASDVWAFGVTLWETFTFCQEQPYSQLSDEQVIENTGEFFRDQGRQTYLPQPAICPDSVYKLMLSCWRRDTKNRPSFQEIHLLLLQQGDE


Key:
[1] = system: T1, fusion protein of glutathione S transferase and human DDR2 cytosolic tyrosine kinase domain (GST-DDR2 CKD), expressed alone in sf9 cells
Histone H2B = test: tyrosine kinase activity using Histone H2B as substrate; type: biochemical; settings: reciprocal plotting 1/V vs 1/[ATP]; FIG. 9, FIG. 10
Method: The GST-DDR2 CKD was solely expressed or co-expressed with the c-Src protein at the ratio of 1:1 in insect cells; the respective obtained GST-DDR2 CKDs were purified; and the tyrosine kinase activities depending on the concentration of ATP were determined using the same amounts of the tyrosine phosphorylation-induced GST-DDR2 CKD (p-GST-DDR2 CKD by Src) which is obtained by co-expression with the c-Src protein in sf 9 cells and non-phosphorylated GST-DDR2 CKD which is obtained by solely expression in sf9 cells.
All measurements were done in triplicate.
The same amount of each protein as judged by CBB staining was used to measure its in vitro tyrosine kinase activity using histone H2B as a substrate as described in materials and methods and their tyrosine kinase activities were shown by autoradiography. Negative stands for a kinase reaction without kinase protein as a control.
Measurement of DDR2 tyrosine kinase activity towards heterologous peptide substrates was performed using 100 ng of the purified kinase protein in 20 ul of reaction mixture containing 20 mM Tris-HCl, pH 8.0, 5 mM MgCl2, 0.5 mM dithiothreitol, 0.01 mM ATP. […] The spotted filter was washed with 0.1M Tris-HCl (pH 8.0) five times for 10 min each and the radioactivity of each spot was visualized and quantitated using BAS image analyzer (Kodak).

shc protein = test: in vitro shc binding assay using HSC T6 cell lysate; set-up: species or system human
Description: One of the characteristic features of tyrosine phosphorylated cytosolic domain of receptor tyrosine kinase is to recruit the signaling proteins such as shc protein. This complex formation between the cytosolic domain of receptor tyrosine kinase protein and signaling proteins such as shc is important for the cellular transmission of the activated receptor tyrosine kinase signal. It has been observed in HSC T6 liver stellate cells and fibroblast cells that shc, one of signaling protein containing PTB domain binds to activated DDR2 cytosolic domain. The present inventors examined whether the invented DDR2 cytosolic tyrosine kinase domain protein with induced tyrosine phosphorylation for example, by the method of co-expression with c-Src in sf 9 cells or with the mutation of tyrosine 740 to phenylalanine 740 can be used for in vitro shc binding assay. In FIG. 15, the purified GST-DDR2 cytosolic domain from sf 9 cells with and without Src coinfection were used for in vitro shc binding assay. Each protein was subject to autophosphorylation reaction at 30° C. for 15 min, and a mock-autophosphylation reaction as well where gamma-S-ATP was used instead of ATP in the reaction buffer before they were used for in vitro shc binding assay using HSC T6 cell lysate.
The purified GST-DDR2 CKD proteins without or with tyrosine phosphorylation by Src were subject to in vitro shc binding assay after autophosphorylation reaction or a mock-autophosphorylation reaction as described in materials and methods. The bound proteins on the glutathione bead were eluted by boiling in 1× lameli buffer. The presence of shc in the eluate was measured by western blotting using shc antibody and the accumulation of tyrosine phosphorylation at GST-DDR2 CKD proteins resulted from autophosphorylation was shown by western blotting using P-tyro antibody. The presence of an equal amount of GST-DDR2 CKD proteins in each eluate was confirmed by CBB staining. ‘Bead only’ means that no GST-DDR2 CKD protein was applied on glutathione bead as a control.
The same type of experiment was done as FIG. 15 using purified GST-DDR2 CKD phosphorylated by src and its mutant proteins of Y740F and Y736/740/741F.
As a source of shc protein, total lysate of HSC T6 cells was used. For the preparation of the lysate, 2×10^7 HSC T6 cells were harvested and lysed by sonication in 5 ml of lysis buffer consisting of 20 mM Tris-HCl (pH8.0), 0.1M NaCl, 5 mM DTT, 10 mM NaF, […], 0.02% IGE-PAL (Sigma) and a proteinase inhibitor cocktail pellet (Roche). The supernatant was obtained by centrifugation in 15,000 rpm for 10 min at 4° C. and used for the following shc binding assay. Various GST-DDR2 KD proteins bound to glutathione bead were obtained as described above. […]

Molecule | level of tyrosine phosphorylation of GST-DDR2 CKD against the ratio of the two baculoviruses (western blot, phosphorylated tyrosine specific antibody) [1] | Km value for ATP compared with the non-phosphorylated control protein (Histone H2B) | Vmax compared with the non-phosphorylated control protein (Histone H2B) | shc binding after in vitro autophosphorylation reaction (shc protein; autophosphorylation at 30° C. for 15 min, FIG. 15, FIG. 16) | shc binding before in vitro autophosphorylation (shc protein; mock-autophosphorylation with gamma-S-ATP, FIG. 15)
full-length human c-Src tyrosine kinase | The tyrosine phosphorylation at the DDR2 cytosolic tyrosine kinase domain was meaningfully induced, when the DDR2 kinase expression virus and the c-Src protein expression virus are co-expressed even at the ratio of 19:1 |  |  |  | 
p-GST-DDR2 CKD by Src: tyrosine phosphorylation-induced GST-DDR2 CKD obtained by co-expression with the c-Src protein in sf 9 cells (protein, left off: a dimerising Fc or GST, tyrosine phosphorylation-induced GST-DDR2 CKD obtained by co-expression with the c-Src protein in sf 9 cells) MTVSLSLPSDSSMFNNNRSSSPSEQGSNSTYDRIFPLRPDYQEPSRLIRKLPEFAPGEEESGCSGVVKPVQPSGPEGVPHYAEADIVNLQGVTGGNTYSVPAVTMDLLSGKDVAVEEFPRKLLTFKEKLGEGQFGEVHLCEVEGMEKFKDKDFALDVSANQPVLVAVKMLRADANKNARNDFLKEIKIMSRLKDPNIIHLLSVCITDDPLCMITEYMENGDLNQFLSRHEPPNSSSSDVRTVSYTNLKFMATQIASGMKYLSSLNFVHRDLATRNCLVGKNYTIKIADFGMSRNLYSGDYYRIQGRAVLPIRWMSWESILLGKFTTASDVWAFGVTLWETFTFCQEQPYSQLSDEQVIENTGEFFRDQGRQTYLPQPAICPDSVYKLMLSCWRRDTKNRPSFQEIHLLLLQQGDE |  | decreased | increased | significantly increased | some shc binding
